According to US20100041873A1 (ZymoGenetics, published 2010):
Substitutions are numbered along the chain they refer to. One block for each binder: values may come before it. No end group written: not given here.

What was measured:
[1] = target: T1, Human IL-21 peptide #1 (pyr30-K50) (human, N-terminal pyroGlu); experiment: direct ELISA
T1 construct: coated on ELISA plates; also called Peptide 1 N-Term
T1 peptide: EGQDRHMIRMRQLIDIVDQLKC
Procedure: (§1) Wells were blocked with 200 μL/well of Blocking Buffer (PBS-Tween plus 1% w/v bovine serum albumin (BSA)) for 1 hour, after which the plates were washed twice with Wash Buffer. Antibody dilutions were prepared in 5% fetal bovine serum (FBS)/Iscove's Modified Dulbecco's Media (IMDM) medium and adjusted to 1 μg/ml. […] Following 1 hour incubation at ambient temperature, the wells were aspirated and the plates washed twice as described above. Horseradish peroxidase (HRP) labeled Goat anti Mouse IgG, Fc specific or Goat anti Rat IgG, Fc specific, or Goat anti Human IgG, Fc specific (Jackson ImmunoResearch Laboratories, West Grove, Pa.) at a dilution of 1:5000 with 5% FBS/IMDM medium was then added to each well, 100 μL/well, and the plates incubated at ambient temperature for 1 hour. After removal of unbound HRP conjugated antibody, the plates were washed five times, 100 μL /well of tetra methyl benzidine (TMB) (BioFX Laboratories, Owings Mills, Md.) added to each well and the plates incubated for 3 minutes at ambient temperature. Color development was stopped by the addition of 100 μL /well of 450 nm TMB Stop Reagent (BioFX Laboratories, Owings Mills, Md.) and the absorbance values of the wells read on a Molecular Devices Spectra MAX 340 instrument at 450 nm.

[2] = target: T2, Human IL-21 peptide #2 (N54-C71) (human); experiment: direct ELISA
T2 peptide: NDLVPEFLPAPEDVETNC
Procedure: as §1

[3] = target: T3, Hu IL-21 Peptide A1750 (conjugated to ovalbumin) (human, also: chemically conjugated to ovalbumin); experiment: Western blot
T3 construct: also called peptide #2 N54-C71 conjugated to ovalbumin
T3 peptide: NDLVPEFLPAPEDVETNC
Procedure: (§2) For Western blots, the non-specific sites on the membranes were blocked with a buffer containing 20 mM Tris, pH 7.4, 0.5 mM EDTA, 0.5% IGEPAL CA-630, 150 mM NaCl, 0.25% gelatin, and 1% casein hydrolysate blocking solution (Western Blocking Reagent, Roche Diagnostics, Inc., Basel Switerzerland) (Blocking Buffer). The membranes were then incubated for 2 hrs at room temperature with purified monoclonal antibody (10 ng/ml or 100 ng/ml) in the Blocking Buffer followed by a 2 hr incubation with peroxidase conjugated donkey anti-human IgG (Jackson Laboratories, Bar Harbor, Me.). The membranes were washed 5 times with the Tris/EDTA/IGEPAL/NaCl/gelatin Blocking buffer which lacked the casein hydrolysate and developed with SUPERSIGNAL™ DuraWest Luminol/Enhancer/Peroxidase Solution (Pierce, Rockford, Ill.) for chemoluminescence detection. The blots were visualized using X-ray film based standard methods.

[4] = target: T4, Hu IL-21 Peptide A1752 (conjugated to ovalbumin) (human, conjugated to ovalbumin); experiment: Western blot
T4 construct: also called peptide #4 C125-S153 conjugated to ovalbumin
Procedure: as §2

[5] = target: Recombinant human IL-21 (human, UniProt Q9HBE4 30-162); experiment: cell-based or functional assay
[6] = target: T5, Recombinant mutant human IL-21 (human, UniProt Q9HBE4 30-162, limits assumed); experiment: direct ELISA
T5 construct: also called IL-21 mutant; mutant human IL-21 protein
Procedure: as §1

[7] = target: T6, Human IL-21 peptide #3 (N97-C122) (human); experiment: direct ELISA
T6 peptide: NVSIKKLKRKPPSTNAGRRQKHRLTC
Procedure: as §1

[8] = target: T7, Human IL-21 peptide #4 (C125-S153) (human); experiment: direct ELISA
T7 construct: also called Peptide 4 C-Term
Procedure: as §1

[9] = target: T8, Hu IL-21 Peptide A1751 (conjugated to ovalbumin) (human, conjugated to ovalbumin); experiment: Western blot
T8 construct: also called peptide #3 N97-C122 conjugated to ovalbumin
T8 peptide: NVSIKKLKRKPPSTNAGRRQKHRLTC
Procedure: as §2

[10] = target: T9, Recombinant cynomolgus IL-21 (cynomolgus monkey, UniProt Q9HBE4 30-162 (human entry), limits assumed); experiment: Western blot
T9 construct: Produced at ZymoGenetics; also called Cyno IL-21; cIL-21
Procedure: as §2

[11] = target: T10, Recombinant human IL-2 (human, UniProt P60568 21-153); experiment: Western blot
T10 construct: also called Hu IL-2

[12] = target: T11, Recombinant human IL-4 (human, UniProt P05112 25-153); experiment: Western blot
T11 construct: also called Hu IL-4
T11 sequence (looked up): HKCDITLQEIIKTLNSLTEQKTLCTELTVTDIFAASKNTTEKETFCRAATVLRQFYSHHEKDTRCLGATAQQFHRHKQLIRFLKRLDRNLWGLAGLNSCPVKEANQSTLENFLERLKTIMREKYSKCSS

[13] = target: T12, Recombinant human IL-7 (human, UniProt P13232 26-177); experiment: Western blot
T12 construct: also called Hu IL-7
T12 sequence (looked up): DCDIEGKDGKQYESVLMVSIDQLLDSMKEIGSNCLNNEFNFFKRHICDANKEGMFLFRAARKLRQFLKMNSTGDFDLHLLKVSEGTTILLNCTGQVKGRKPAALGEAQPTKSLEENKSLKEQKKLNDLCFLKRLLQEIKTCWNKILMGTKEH

[14] = target: T13, Recombinant human IL-9 (human, UniProt P15248 19-144); experiment: Western blot
T13 construct: also called Hu IL-9

[15] = target: T14, Recombinant human IL-15 (human, UniProt P40933 49-162); experiment: Western blot
T14 construct: also called Hu IL-15
T14 sequence (P40933 49-162 limits assumed): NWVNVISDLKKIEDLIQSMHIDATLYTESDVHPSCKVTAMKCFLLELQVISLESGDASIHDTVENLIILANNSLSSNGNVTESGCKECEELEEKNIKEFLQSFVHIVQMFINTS

Recombinant human IL-21, sequence (Q9HBE4 30-162 limits assumed): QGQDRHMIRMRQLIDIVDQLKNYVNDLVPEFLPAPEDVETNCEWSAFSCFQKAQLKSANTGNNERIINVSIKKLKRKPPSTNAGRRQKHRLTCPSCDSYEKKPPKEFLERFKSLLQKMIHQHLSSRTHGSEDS
T4 sequence (peptide, as listed by the source): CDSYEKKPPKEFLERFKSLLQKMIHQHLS
T10 sequence (P60568 21-153 limits assumed): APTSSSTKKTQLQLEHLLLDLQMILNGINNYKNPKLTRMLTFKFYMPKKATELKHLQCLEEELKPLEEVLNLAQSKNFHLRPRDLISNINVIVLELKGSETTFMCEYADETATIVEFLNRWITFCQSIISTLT
T13 sequence (P15248 19-144 limits assumed): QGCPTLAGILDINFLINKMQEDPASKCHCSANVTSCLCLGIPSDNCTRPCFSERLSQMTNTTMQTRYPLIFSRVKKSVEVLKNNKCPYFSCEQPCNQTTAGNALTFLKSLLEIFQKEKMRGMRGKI
T9 sequence (Q9HBE4 other isoform, or with tags, fused parts or gaps limits assumed): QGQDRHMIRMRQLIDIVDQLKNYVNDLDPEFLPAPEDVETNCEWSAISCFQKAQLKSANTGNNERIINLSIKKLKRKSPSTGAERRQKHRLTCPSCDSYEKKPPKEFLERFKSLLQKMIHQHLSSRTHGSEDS
T5 sequence (Q9HBE4 other isoform, or with tags, fused parts or gaps mutant limits assumed): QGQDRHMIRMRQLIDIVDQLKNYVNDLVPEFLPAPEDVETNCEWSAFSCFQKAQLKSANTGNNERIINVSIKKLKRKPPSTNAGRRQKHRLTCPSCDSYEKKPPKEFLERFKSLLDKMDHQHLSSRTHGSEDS

- binding result [1]: no binding (tested: 1 ug/ml mAb)
- binding result [2]: no binding (tested: 1 ug/ml mAb)
- binding result [3]: no binding (tested: 10 or 100 ng/ml mAb)
- binding result [4]: no binding (tested: 10 or 100 ng/ml mAb)
- % IgD-low, CD138+ Plasma Cells, antagonist:ligand 0.16:1 [5]: 42.8%
- % IgD-low, CD138+ Plasma Cells, antagonist:ligand 0.6:1 [5]: 34.1%
- % IgD-low, CD138+ Plasma Cells, antagonist:ligand 2.5:1 [5]: 15.5%
- % IgD-low, CD138+ Plasma Cells, antagonist:ligand 10:1 [5]: 13.7%
B1: Human anti-human IL-21 monoclonal antibody 362.78.1.44 (antibody, V domains shown)
VH: QVQLVESGGGVVQPGRSLRLSCAASGFTFSSYGMHWVRQAPGKGLEWVAFIWYDGSDKYYADSVKGRFTISRDNSKNTLYLQMNSLRAEDTAVYYCARDGDSSDWYGDYYFGMDVWGQGTTVTVSS
VL: not shown
notes: Hybridoma antibody, ATCC PTA-8790; also called clone 78

- binding result [1]: no binding (tested: 1 ug/ml mAb)
- binding result [2]: no binding (tested: 1 ug/ml mAb)
- binding result [3]: no binding (tested: 10 or 100 ng/ml mAb)
B2: Human anti-human IL-21 monoclonal antibody 362.597.3 (antibody, V domains shown)
VH: B1 VH with S31T
VL: not shown
notes: Hybridoma antibody, ATCC PTA-8786; isotype printed as IgG; also called 362.597.3.15

- binding result [6]: no binding (tested: 1 ug/ml mAb)
- binding result [1]: no binding (tested: 1 ug/ml mAb)
- binding result [2]: no binding (tested: 1 ug/ml mAb)
- binding result [7]: no binding (tested: 1 ug/ml mAb)
- binding result [8]: binds
- binding result [3]: no binding (tested: 10 or 100 ng/ml mAb)
- binding result [9]: no binding (tested: 10 or 100 ng/ml mAb)
- binding result [4]: binds
- binding result [10]: binds
- binding result [11]: no binding
- binding result [12]: no binding
- binding result [13]: no binding
- binding result [14]: no binding
- binding result [15]: no binding
B3: Human anti-human IL-21 monoclonal antibody 362.75.1.1 (antibody, V domains shown)
VH: QLQLQESGPGLVKPSETLSLTCTVSGGSISSRTYRWGWIRQPPGKELEWIGSIYYRGSTFYNPSLKSRVTVSVDTSKNQFSLKLSSVTAADTAVYYCARQSGYSGYDWFDPWGQGTLVTVSS
VL: EIVLTQSPATLSLSPGERATLSCRASQSVSSFLAWYQQKPGQAPRLLIYDASNRATGIPARFSGSGSGTDFTLTISSLEPEDFAVYYCQQRSNWITFGQGTRLEIK
notes: Hybridoma antibody, ATCC PTA-8791; isotype printed only as IgG
